Measurements taken from patent publication US20220064282A1 (ZEDA BIOPHARMACEUTICALS, published 2022).
Substitutions are numbered along the chain they refer to.

Legend:
IL-1β-his-bio = molecular target: T1, IL-1β-his-bio (human, UniProt P01584 117-269, biotinylated, sites not stated); test: ELISA, IL-1β-his-bio captured on streptavidin plate
T1 construct: also called biotinylated IL1b-His

[1] = molecular target: T2, IL1β (antigen used as analyte in Biacore) (UniProt P01584 117-269, limits assumed); test: SPR (Biacore), antibody captured on Protein A chip, antigen as analyte
T2 construct: also called the antigen

IL-1β-hFc [2] = molecular target: T3, IL-1β-hFc (human); test: competition ELISA by the method of Example 6.2, competitor IL1RI
T3 construct: also called IL1b-TEV-hIgG1Fc

IL-1β-hFc [3] = molecular target: T3, IL-1β-hFc; test: competition ELISA: IL-1β-hFc coated, antibody titrated, IL1RI (1-332)-his as the blocked receptor (Example 12, method of Example 6.2)
IL-1β-his [4] = molecular target: T4, IL-1β-his (human, UniProt P01584 117-269); test: BLI (Fortebio Octet Qke), antibody immobilised on AR2G sensor, IL1β-his 1.56-100 nM, 1:1 fit
T4 construct: also called IL1b-His; IL-1β-WT-His

IL-1β-his [5] = molecular target: T4, IL-1β-his; test: ELISA, IL-1β-his coated
IL-1β-hFc [6] = molecular target: T3, IL-1β-hFc; test: competition ELISA, IL-1β-hFc coated, competitor IL1RI(1-332)-his, anti-His detection
IL-1β-hFc [7] = molecular target: T3, IL-1β-hFc; test: competition ELISA, IL-1β-hFc coated, competitor IL1RI(1-332)-his at 0.04 µg/ml, anti-His detection
IL-1β-his [8] = molecular target: T4, IL-1β-his; test: ELISA, IL-1β-his coated, antibody titrated (Example 9, method of Example 6.1); Mean, SD 0.000; upper left table
IL-1β-his [9] = molecular target: T4, IL-1β-his; test: ELISA on IL-1β-his (Example 11, method of Example 6.1); sample kept at 40 °C for 28 d; Mean, SD 0.023
IL-1β-his [10] = molecular target: T4, IL-1β-his; test: ELISA, IL-1β-his coated, antibody titrated (Example 9, method of Example 6.1); Mean, SD 0.002; lower right table
IL-1β-his [11] = molecular target: T4, IL-1β-his; test: ELISA on IL-1β-his (Example 11, method of Example 6.1); sample kept at 40 °C for 7 d; Mean, SD 0.001
IL-1β-his [12] = molecular target: T4, IL-1β-his; test: ELISA, IL-1β-his coated, antibody titrated (Example 9, method of Example 6.1); Mean, SD 0.000; upper right table
IL-1β-his [13] = molecular target: T4, IL-1β-his; test: ELISA, IL-1β-his coated, antibody titrated (Example 9, method of Example 6.1); Mean, SD 0.019; lower left table

B1: Positive control antibody PcAb (antibody, human IgG1, kappa, V domains shown)
VH: QVQLVESGGGVVQPGRSLRLSCAASGFTFSVYGMNWVRQAPGKGLEWVAIIWYDGDNQYYADSVKGRFTISRDNSKNTLYLQMNGLRAEDTAVYYCARDLRTGPFDYWGQGTLVTVSS
VL: EIVLTQSPDFQSVTPKEKVTITCRASQSIGSSLHWYQQKPDQSPKLLIKYASQSFSGVPSRFSGSGSGTDFTLTINSLEAEDAAAYYCHQSSSLPFTFGPGTKVDIKR
notes: also called KF021ZP4 PcAb; KF021ZP4 PCAb
With B1 the EC50 (IL-1β-his-bio) was 0.062 nM, the Kd [1] was 0.0616 nM and the koff [1] was 0.000104 s⁻¹. The kon [1] was 1.69e+06 M⁻¹ s⁻¹, the IC50 (IL-1β-hFc [2]) was 0.03 nM and the “IC50 (read off the curve)” value (IL-1β-hFc [3]) was about 3 nM. For the same binder, the Kd (IL-1β-his [4]) was 0.179 nM, the koff (IL-1β-his [4]) was 0.000105 s⁻¹ and the kon (IL-1β-his [4]) was 589000 M⁻¹ s⁻¹. For the same binder, the EC50 (IL-1β-his [5]) was 0.169 nM, the EC50 (IL-1β-hFc [6]) was 0.516 nM and the EC50 (IL-1β-hFc [7]) was 0.229 nM.

B2: murine antibody KF021ZP4 18H11 (antibody, V domains shown)
VH: EVQLQQSGPELVKTGASVKISCKASGYLFTGYYMHWVKQSHGKSLEWIGFISCYNGDTTYNQKFKDKATFTVDTSSNTAYMQFNSLTSEDSAVYYCSRSDYYGTSDYWGQGTTLTVSS
VL: QIVLTQSPAIMSASPGEKVTITCSASSSVSYMHWFQQKPGTSPKLWIYTTSTLASGVPARFSGSGSGTSYSLTISRMEAEDAATYYCQQRIIYPPTFGGGTKLEIK
notes: Mouse monoclonal antibody from hybridoma supernatant
For B2, the EC50 (IL-1β-his-bio) was 0.174 nM and the EC50 (IL-1β-hFc [7]) was 0.389 nM.

B3: murine antibody KF021ZP4 9D5 (antibody, V domains shown)
VH: DVQLVESGGGLVQPGGSRKLSCAASGFTFSTFGMHWVRQAPEKGLEWVAYISSGSYTTYYADTVRGRFTISRDNPKNTLFLQMTSLRSEDTAMYYCARDDYDVSNYVMDYWGQGTSVTVSS
VL: DIVLTQSPASLAVSLGQRATISCRASESVEYYGTSLMQWYQQKPGQPPKLLIYAASNVESGVPARFTGSGSGTVFSLNIHPVEEDDIAMYFCQQSRKVPSLTFGAGTKLELK
notes: as for B2
In the case of B3, the EC50 (IL-1β-his-bio) is reported as 0.036 nM and the EC50 (IL-1β-hFc [7]) is reported as 0.37 nM.

B4: murine antibody KF021ZP4 19E4 (antibody, V domains shown)
VH: B3 VH with T58I, N105Y, V107A
VL: B3 VL with T67S, V74D
notes: as for B2
B4 showed an EC50 (IL-1β-his-bio) of 0.726 nM and an EC50 (IL-1β-hFc [7]) of 0.892 nM.

B5: humanized antibody 18H11 H1L1 (antibody, V domains shown)
VH: QVQLVQSGAEVVKPGASVKISCKASGYLFTGYYMHWVKQAPGKGLEWIGFISCYNGDTTYNQKFQGKATFTVDTSTNTAYMEFNSLTSEDTAVYYCSRSDYYGTSDYWGQGTTLTVSS
VL: EIVLTQSPATMSASPGERVTISCRASSSVSYMHWFQQKPGQAPRLWIYTTSTLATGVPARFSGSGSGTDYTLTISRMEPEDAATYYCQQRIIYPPTFGGGTKLEIKR
Work on B5 yielded an EC50 (IL-1β-his [8]) of 0.051 nM, an EC50 (IL-1β-his [9]) of 0.133 nM and an EC50 (IL-1β-his [10]) of 0.051 nM. For the same binder, the Kd (IL-1β-his [4]) was 0.142 nM, the EC50 (IL-1β-his [11]) was 0.076 nM and the EC50 (IL-1β-his [5]) was 0.046 nM. It also gave an EC50 (IL-1β-his [12]) of 0.051 nM and an EC50 (IL-1β-his [13]) of 0.074 nM.
